Measured values as given in publication PMC12313861.

Target: ComFB signaling protein (Slr1970) (Synechocystis)
Assay: SEC-MALS; size exclusion chromatography coupled to multiangle light scattering of ComFB; species of 40.5 kDa against theoretical monomer mass 20.4 kDa

- stoichiometry N: 2
Substance: ComFB signaling protein (Slr1970) (natural protein)
